From patent publication US11278600B2, “Human alpha-galactosidase variants” (Codexis, Inc., priority 2014, dated 2022)

What was measured:
Assay type in all cases: biochemical
[1] = HTP-analysis of yeast culture supernatants, no challenge (MUGal hydrolysis); conditions: activity of the variant/activity of WT GLA (SEQ ID NO: 5), yeast supernatant
Outline: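 Activity read as 4-methylumbelliferyl α-D-galactopyranoside hydrolysis: fluorescence (355/448 nm) after sodium carbonate stop, following 30-180 min at 37° C with 2 mM MUGal stock at pH 4.6–4.8. Enzyme source is unchallenged culture supernatant of INVSc1 yeast expressing GLA variants, grown 66-84 h at 30° C.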

[2] = HTP-analysis of supernatants pretreated with base (MUGal hydrolysis); conditions: challenge at pH 7.1; activity of the variant/activity of WT GLA (SEQ ID NO: 5); yeast supernatant
Outline: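 GLA variants secreted from yeast INVSc1; culture supernatants pre-incubated with McIlvaine buffer pH 7.0–8.2 or 200 mM bicarbonate pH 9.1–9.7 at 37° C. for 1–18 h. Residual activity: MUGal (4 mM stock) hydrolysis at pH 4.3–4.8, 37° C., 30–180 min, carbonate quench; fluorescence Ex 355/Em 448 nm.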

[3] = HTP-analysis of supernatants pretreated with acid (MUGal hydrolysis); conditions: challenge at pH 4.2; activity of the variant/activity of WT GLA (SEQ ID NO: 5); yeast supernatant
Outline: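 GLA variants were secreted from INVSc1 yeast grown 66-84 h at 30° C. in SD-Ura with 2% glucose; supernatants were mixed with McIlvaine buffer pH 3.3-4.3 and held at 37° C. for 1-3 h. Residual activity on MUGal at pH 4.8 was then measured by fluorescence.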

Molecule | Relative Activity of GLA Variants After No Challenge (NC) [1] | Relative Activity of GLA Variants After Challenge at pH 7.1 [2] | Relative Activity of GLA Variants After Challenge at pH 4.2 [3]
151 (protein, Synthetic Polypeptide sequence of Variant No. 151 of mature Human GLA) LDNGLARTPTMGWLHWERFMCNLDCQEEPDSCISEKLFMEMAELMVSEGWKDAGYEYLCIDDCWMAPQRDSEGRLQADPQRFPHGIRQLANYVHSKGLKLGIYADVGNKTCAGFPGSFGYYDIDAQTFADWGVDLLKFDGCYCDSLENLADGYKHMSLALNSTGRSIVYSCEWPLYMWPFQKPNYTEIRQYCNHWRNFADIDDSWKSIKSILDWTSFNQERIVDVAGPGGWNDPDMLVIGNFGLSWNQQVTQMALWAIMAAPLFMSNDLRHISPQAKALLQDKDVIAINQDPLGKQGYQLRQGDNFEVWERPLSGLAWAVAMINRQEIGGPRSYTIAVASLGKGVACNPACFITQLLPVKRKLGFYEWTSRLRSHINPTGTVLLQLENTMQMSKDLLL | + (+ = 0.5 to 1.5 relative activity over WT GLA (SEQ ID NO: 5)) | + (+ = 0.5 to 1.5 relative activity over WT GLA (SEQ ID NO: 5)) | + (+ = 0.5 to 1.5 relative activity over WT GLA (SEQ ID NO: 5))
156 (protein, Synthetic Polypeptide sequence of Variant No. 156 of mature Human GLA) LDNGLARTPTMGWLHWERFMCNLDCQEEPDSCISEKLFMEMAELMVSEGWKDAGYEYLCIDDCWMAPQRDSEGRLQADPQRFPHGIRQLANYVHSKGLKLGIYADVGNKTCAGFPGSFGYYDIDAQTFADWGVDLLKFDGCYCDSLENLADGYKHMSLALNRTGRSIVYSCEWPLYMWPFQKPNYTEIRQYCNHWRNFADIDDSWKSIKSILDWTSFNQERIVDVAGPGGWNDPDMLVIGNFGLSWNQQVTQMALWAIMAAPLFMSNDLRHISPQAKALLQDKDVIAINQDPLGKQGYQLRQGDNFEVWERPLSGLAWAVAMINRQEIGGPRSYTIAVASLGKGVACNPACFITQLLPVKRKLGFYEWTSSLRSHINPTGTVLLQLENTMQMSKDLLL | ++ (++ = >1.5 to 2.5 relative activity over WT GLA (SEQ ID NO: 5)) | ++ (++ = >1.5 to 2.5 relative activity over WT GLA (SEQ ID NO: 5)) | + (+ = 0.5 to 1.5 relative activity over WT GLA (SEQ ID NO: 5))
152 (protein, Synthetic Polypeptide sequence of Variant No. 152 of mature Human GLA) LDNGLARTPTMGWLHWERFMCNLDCQEEPDSCISEKLFMEMAELMVSEGWKDAGYEYLCIDDCWMAPQRDSEGRLQADPQRFPHGIRQLANYVHSKGLKLGIYADVGNKTCAGFPGSFGYYDIDAQTFADWGVDLLKFDGCYCDSLENLADGYKHMSLALNRTGRSIVYSCEWPLYMWPFQKPNYTEIRQYCNHWRNFADIDDSWKSIKSILDWTSFNQEKIVDVAGPGGWNDPDMLVIGNFGLSWNQQVTQMALWAIMAAPLFMSNDLRHISPQAKALLQDKDVIAINQDPLGKQGYQLRQGDNFEVWERPLSGLAWAVAMINRQEIGGPRSYTIAVASLGKGVACNPGCFITQLLPVKRKLGFYEWTSRLRSHINPTGTVLLQLENTMQMSKDLLL | ++ (++ = >1.5 to 2.5 relative activity over WT GLA (SEQ ID NO: 5)) | ++ (++ = >1.5 to 2.5 relative activity over WT GLA (SEQ ID NO: 5)) | ++ (++ = >1.5 to 2.5 relative activity over WT GLA (SEQ ID NO: 5))
155 (protein, Synthetic Polypeptide sequence of Variant No. 155 of mature Human GLA) LDNGLARTPTMGWLHWERFMCNLDCQEEPDSCISEKLFMEMAELMVSEGWKDAGYEYLCIDDCWMAPQRDSEGRLQADPQRFPHGIRQLANYVHSKGLKLGIYADVGNKTCAGFPGSFGYYDIDAQTFADWGVDLLKFDGCYCDSLENLADGYKHMSLALNRTGRSIVYSCEWPLYMWPFQKPNYTEIRQYCNHWRNFADIDDSWKSIKSILDWTSFNQERIVDVAGPGGWNDPDMLVIGNFGLSWNQQVTQMALWAIMAAPLFMSNDLRHISPQAKALLQDKDVIAINQDPLGKQGYQLLQGDNFEVWERPLSGLAWAVAMINRQEIGGPRSYTIAVASLGKGVACNPACFITQLLPVKRKLGFYEWTSRLRSHINPTGTVLLQLENTMQMSKDLLL | + (+ = 0.5 to 1.5 relative activity over WT GLA (SEQ ID NO: 5)) | + (+ = 0.5 to 1.5 relative activity over WT GLA (SEQ ID NO: 5)) | + (+ = 0.5 to 1.5 relative activity over WT GLA (SEQ ID NO: 5))
38 (protein, Synthetic Polypeptide sequence of Variant No. 38 of mature Human GLA) LDNGLARTPTMGWLHWERFMCNLDCQEEPDSCISEKLFMEMAELMVSEGWKDAGYEYLCIDDCWMAPQRDSEGRLQADPQRFPHGIRQLANYVHSKGLKLGIYASVGNKTCAGFPGSFGYYDIDAQTFADWGVDLLKFDGCYCDSLENLADGYKHMSLALNRTGRSIVYSCEWPLYMWPFQKPNYTEIRQYCNHWRNFADIDDSWKSIKSILDWTSFNQERIVDVAGPGGWNDPDMLVIGNFGLSWNQQVTQMALWAIMAAPLFMSNDLRHISPQAKALLQDKDVIAINQDPLGKQGYQLRQGDNFEVWERPLSGLAWAVAMINRQEIGGPRSYTIAVASLGKGVACNPACFITQLLPVKRKLGFYEWTSRLRSHINPTGTVLLQLENTMQMSKDLLL | − (− = <0.5 relative activity to WT GLA (SEQ ID NO: 5)) | − (− = <0.5 relative activity to WT GLA (SEQ ID NO: 5)) | + (+ = 0.5 to 1.5 relative activity over WT GLA (SEQ ID NO: 5))
157 (protein, Synthetic Polypeptide sequence of Variant No. 157 of mature Human GLA) LDNGLARTPTMGWLHWERFMCNLDCQEEPDSCISEKLFMEMAELMVSEGWKDAGYEYLCIDDCWMAPQRDSEGRLQADPQRFPHGIRQLANYVHSKGLKLGIYADVGNKTCAGFPGSFGYYDIDAQTFADWGVDLLKFDGCYCDSLENLADGYKHMSLALNRTGRSIVYSCEWPLYMWPFQKPNYTEIRQYCNHWRNFADIDDSWKSIKSILDWTSFNQERIVDVAGPGGWNDPDMLVIGNFGLSWNQQVTQMALWAIMAAPLFMSNDLRHISPQAKALLQDKDVIAINQDPLGKQGYQLRQGDNFEVWERPLSGLAWAVAMINRQEIGGPRSYTIAVASLGKGVACNPACFITQLLPVKRKLGFYEWTSVLRSHINPTGTVLLQLENTMQMSKDLLL | ++ (++ = >1.5 to 2.5 relative activity over WT GLA (SEQ ID NO: 5)) | ++ (++ = >1.5 to 2.5 relative activity over WT GLA (SEQ ID NO: 5)) | + (+ = 0.5 to 1.5 relative activity over WT GLA (SEQ ID NO: 5))
153 (protein, Synthetic Polypeptide sequence of Variant No. 153 of mature Human GLA) LDNGLARTPTMGWLHWERFMCNLDCQEEPDSCISEKLFMEMAELMVSEGWKDAGYEYLCIDDCWMAPQRDSEGRLQADPQRFPHGIRQLANYVHSKGLKLGIYADVGNKTCAGFPGSFGYYDIDAQTFADWGVDLLKFDGCYCDSLENLADGYKHMSLALNRTGRSIVYSCEWPLYMWPFQKPNYTEIRQYCNHWRNFADIDDSWKSIKSILDWTSFNQETIVDVAGPGGWNDPDMLVIGNFGLSWNQQVTQMALWAIMAAPLFMSNDLRHISPQAKALLQDKDVIAINQDPLGKQGYQLRQGDNFEVWERPLSGLAWAVAMINRQEIGGPRSYTIAVASLGKGVACNPACFITQLLPVKRKLGFYEWTSRLRSHINPTGTVLLQLENTMQMSKDLLL | + (+ = 0.5 to 1.5 relative activity over WT GLA (SEQ ID NO: 5)) | ++ (++ = >1.5 to 2.5 relative activity over WT GLA (SEQ ID NO: 5)) | + (+ = 0.5 to 1.5 relative activity over WT GLA (SEQ ID NO: 5))
154 (protein, Synthetic Polypeptide sequence of Variant No. 154 of mature Human GLA) LDNGLARTPTMGWLHWERFMCNLDCQEEPDSCISEKLFMEMAELMVSEGWKDAGYEYLCIDDCWMAPQRDSEGRLQADPQRFPHGIRQLANYVHSKGLKLGIYADVGNKTCAGFPGSFGYYDIDAQTFADWGVDLLKFDGCYCDSLENLADGYKHMSLALNRTGRSIVYSCEWPLYMWPFQKPNYTEIRQYCNHWRNFADIDDSWKSIKSILDWTSFNQERIVDVAGPGGWNDPDMLVIGNFGLSWNQQVTQMALWAIMAAPLFMSNDLRHISPQAKALLQDKDVIAINQDPLGKQGYQLIQGDNFEVWERPLSGLAWAVAMINRQEIGGPRSYTIAVASLGKGVACNPACFITQLLPVKRTLGFYEWTSRLRSHINPTGTVLLQLENTMQMSKDLLL | ++ (++ = >1.5 to 2.5 relative activity over WT GLA (SEQ ID NO: 5)) | ++ (++ = >1.5 to 2.5 relative activity over WT GLA (SEQ ID NO: 5)) | + (+ = 0.5 to 1.5 relative activity over WT GLA (SEQ ID NO: 5))
